Test: LC chromatograms (LC-MS) of ligands before and after incubation in 0.1 M peracetic acid
Assay type: physicochemical
Conditions: 1 h incubation in 0.1 M peracetic acid, UV 280 nm
Procedure: The kinetics was measured by Surface Plasmon Resonance on a Biacore™ instrument. […] 1 ml rPrL and KappaSelect ligand were diluted to 10 mg/ml. • 3. Reference sample (0 h) was withdrawn, 100 μl and buffer exchanged to 50 mM Ammonium Bicarbonate. • 4. 10% 1 M PAA was added and the incubations started. • 5. Samples were withdrawn after 1, 2, 4, 8, 16 and 24 h, 100 μl and buffer exchanged to 50 mM Ammonium Bicarbonate to stop the oxidation reaction. • 6. The concentrations were measured in all samples by measuring the UV absorbance at 276 nm. • 7. The samples were then analyzed on LC-MS and Biacore.

B1: rPrL: recombinant Protein L (protein)
chain: AVENKEETPETPETDSEEEVTIKANLIFANGSTQTAEFKGTFEKATSEAYAYADTLKKDNGEYTVDVADKGYTLNIKFAGKEKTPEEPKEEVTIKANLIYADGKTQTAEFKGTFEEATAEAYRYADALKKDNGEYTVDVADKGYTLNIKFAGKEKTPEEPKEEVTIKANLIYADGKTQTAEFKGTFEEATAEAYRYADLLAKENGKYTVDVADKGYTLNIKFAGKEKTPEEPKEEVTIKANLIYADGKTQTAEFKGTFAEATAEAYRYADLLAKENGKYTADLEDGGYTINIRFAGKKVDEKPEE
- LC chromatograms before and after SIP (degradation): no signs of degradation
